Where a chain is given by its changes, count along the chain named. Numbers in names are those of the source. Where “and” joins values, the source holds several entries; their conditions need not be identical. Identical values can stand only once.
Experiments:
[1] = test system: NC(=O)c1ccc[n+]([C@@H]2O[C@H](COP(=O)(O)OP(=O)(O)OC[C@H]3O[C@@H](n4cnc5c(N)ncnc54)[C@H](O)[C@@H]3O)[C@@H](O)[C@H]2O)c1; assay: purified protein; assay type: biochemical, Bacillus cereus; conditions: 2.0 μM ThsA, 63 mM NaCl, 14 mM Tris-HCl pH 7.5, 25 °C
[2] = target: the molecule itself; assay: SEC-MALS; Superdex 200 Increase 10/300 GL, 200 mM NaCl, 2 mM DTT, 20 mM HEPES pH 7.5, 25 °C; ThsA loaded at 11 mg/mL, ThsB at 24 mg/mL (~1 mM)
[3] = target: the molecule itself; assay: crystal structure; ThsA crystals, sitting drop, 20 °C, 22% polypropylene glycol 400, 0.2 M MgCl2, 0.1 M MES pH 6.5; 2.5 Å; four protomers in the asymmetric unit
[4] = target: the molecule itself; assay: SEC; analytical SEC of single ThsA proteins (wild type, N112A, H152A) to compare the oligomeric state; Superdex 200 10/300 GL, 150 mM NaCl, 1 mM DTT, 20 mM HEPES pH 7.5

Question: What does the source list for ThsA (Bacillus cereus MSX-D12)?
Answer: Km [1]: 270 µM; kcat [1]: 0.565 s⁻¹

B1: ThsA of the Bacillus cereus MSX-D12 Thoeris defense system, wild type (enzyme)
chain: MNPIVELFIKDFTKEVMEENAAIFAGAGLSMSVGYVSWAKLLEPIAQEIGLDVNKENDLVSLAQYYCNENQGNRGRINQIILDEFSRKVDLTENHKILARLPIHTYWTTNYDRLIEKALEEENKIADVKYTVKQLATTKVKRDAVVYKMHGDVEHPSEAVLIKDDYEKYSIKMDPYIKALSGDLVSKTFLFVGFSFTDPNLDYILSRVRSAYERDQRRHYCLIKKEERRPDELEADFEYRVRKQELFISDLSRFNIKTIVLNNYNEITEILQRIENNIKTKTVFLSGSAVEYNHWETEHAEQFIHQLSKELIRKDFNIVSGFGLGVGSFVINGVLEELYMNQGTIDDDRLILRPFPQGKKGEEQWDKYRRDMITRTGVSIFLYGNKIDKGQVVKAKGVQSEFNISFEQNNYVVPVGATGYIAKDLWNKVNEEFETYYPGADARMKKLFGELNNEALSIEELINTIIEFVEILSN
notes: ThsA, Bacillus cereus MSX-D12, synthetic thsA gene in pET28a; the structure has an N-terminal sirtuin-like domain (residues 1-283) and a C-terminal SLOG-like domain (residues 284-476); The synthetic thsA gene was cloned; Predominantly a tetramer by SEC-MALS, with a trace of octamer; also called B. cereus ThsA; wild-type ThsA; source: E. coli BL21(DE3), purified (HisTrap, TEV cleavage, second …)
Question: B1 was tested. Which “stoichiometry N” value [2] did it give?
Answer: Its value is 4 and 8.

B2: selenomethionyl ThsA of Bacillus cereus MSX-D12 (crystallised) (enzyme)
chain: B1 chain
modifications: selenomethionine at seven of eight possible Met sites
notes: ThsA, Bacillus cereus MSX-D12, synthetic thsA gene in pET28a; N-terminal sirtuin-like domain (residues 1-283) and C-terminal SLOG-like domain (residues 284-476) in the structure; Four protomers (chains A-D) in the asymmetric unit; The methods describe only selenomethionyl protein before the crystallisation; that the deposited structure is of this form is inferred; also called selenomethionyl …
Question: Does B2 bind [3]?
Answer: Result: binds

B3: ThsA N112A mutant (enzyme)
chain: B1 chain with N110A
notes: ThsA, Bacillus cereus MSX-D12, synthetic thsA gene in pET28a, point mutant made by PCR with mismatched primers; source: E. coli BL21(DE3), purified; not shown: His6, N-terminal, cleaved; MBP, N-terminal, cleaved
Question: Does B3 bind [4]?
Answer: Result: binds

From publication PMC7272460, “Structural and functional evidence of bacterial antiphage protection by Thoeris defense system via NAD^+ degradation” (Nature Communications, 2020)
